According to doi:10.1101/2025.09.16.676546:

Target: E.amu APN ectodomain, His-tagged (for cryo-EM) (Erinaceus amurensis)
Test: cryo-EM structure

## EriCoV RU15-1 RBD, His-tagged (for cryo-EM, BLI and SPR) (domain or fragment)
  share of the total particles that are the complex: 5%
